B1: H1H744N (antibody, V domains shown)
VH: QVQLVQSGVEVKKPGASVKVSCKTSGYTFSNNGFSWVRQAPGQGLEWLGWISGYNGNTNYAQKFQGRVTMTTDTSTSTAYMELRTLRSDDTAVYYCARDQDYSNFHWLDPWGQGTLVTVAS
VL: DIQMTQSPSSVSASVGDRVIITCRASQGLSSWLAWYQQKPGTAPKLLIHSASSLQTGVPSRFSGSGSGTEFALTINSLQPEDFGTYYCQQANSFPLTFGGGTRVEIK
B2: H1H685P (antibody, V domains shown)
VH: EVQLVESGGGLVQPGGSLRLSCAASGFTFSSYDIHWVRQATGKGLEWVSAIGPAGDTYYPGSVKGRFTISRENAKNSLYLQMNSLRAGDTAVYYCARGLITFGGLIAPFDYWGQGTLVTVSS
VL: EIVLTQSPGTLSLSPGERATLSCRASQSVSSTYLAWYQQKPGQAPRLLIYGASSRATGIPDRFSGSGSGTDFTLTISRLEPEDFAVYYCQHYDNSQTFGQGTKVEIK
notes: also called mAb1

Columns and labels:
[1] = target: T1, Dimeric fibrinogen-like domain of mouse (Mus musculus) Ang-2 conjugated to human IgG1 (mouse (Mus musculus)); experiment: SPR, antibody captured on anti-human kappa, 25 C
T1 construct: also called Dimeric Mouse Ang-2FD; Mouse Ang-2FD-hFc
Procedure: (§1) Additional binding experiments were conducted using selected anti-Ang-2 antibodies at two different temperatures to further assess cross-species affinity. Each selected antibody or control construct was captured at a flow rate of 40 μL/min for 1 minute on a goat anti-human kappa polyclonal antibody surface created through direct chemical coupling to a BIACORE™ chip to form a captured antibody surface.

[2] = target: T2, Dimeric fibrinogen-like domain of monkey (Macca fascicularis) Ang-2 conjugated to human IgG1 (monkey (Macca fascicularis)); experiment: SPR, antibody captured on anti-human kappa, 25 C
T2 construct: also called Dimeric Monkey Ang-2FD; Monkey Ang-2FD-hFc
Procedure: as §1

[3] = target: T1, Dimeric fibrinogen-like domain of mouse …; experiment: SPR, hIgG1 antibody captured, room temp
Procedure: (§2) Antibody was captured on a goat anti-mouse IgG polyclonal antibody surface, a goat anti-human κ polyclonal antibody (Southern Biotech, Birmingham, Ala.) surface or a goat anti-human IgG polyclonal antibody (Jackson Immuno Research Lab, West Grove, Pa.) surface created through direct amine coupling to a BIACORE™ CM5 sensor chip to form a captured antibody surface. […] Antigen-antibody binding and dissociation were monitored in real time at room temperature. Kinetic analysis was performed to calculate KD and half-life of antigen/antibody complex dissociation.
(§3) The above experiment was repeated using selected purified anti-Ang-2 antibodies cloned onto human IgG1.

[4] = target: T2, Dimeric fibrinogen-like domain of …; experiment: SPR, hIgG1 antibody captured, room temp
Procedure: as §2, §3

[5] = target: T3, Dimeric fibrinogen-like domain of human Ang-2 conjugated to human IgG1 (human); experiment: SPR, hIgG1 antibody captured, room temp
T3 construct: also called Dimeric Human Ang-2FD; Human Ang-2FD-hFc
Procedure: as §2, §3

[6] = target: T1, Dimeric fibrinogen-like domain of mouse …; experiment: SPR, antibody captured on anti-human kappa, 37 C
Procedure: as §1

[7] = target: T2, Dimeric fibrinogen-like domain of …; experiment: SPR, antibody captured on anti-human kappa, 37 C
Procedure: as §1

T1 sequence (chain, as listed by the source limits assumed): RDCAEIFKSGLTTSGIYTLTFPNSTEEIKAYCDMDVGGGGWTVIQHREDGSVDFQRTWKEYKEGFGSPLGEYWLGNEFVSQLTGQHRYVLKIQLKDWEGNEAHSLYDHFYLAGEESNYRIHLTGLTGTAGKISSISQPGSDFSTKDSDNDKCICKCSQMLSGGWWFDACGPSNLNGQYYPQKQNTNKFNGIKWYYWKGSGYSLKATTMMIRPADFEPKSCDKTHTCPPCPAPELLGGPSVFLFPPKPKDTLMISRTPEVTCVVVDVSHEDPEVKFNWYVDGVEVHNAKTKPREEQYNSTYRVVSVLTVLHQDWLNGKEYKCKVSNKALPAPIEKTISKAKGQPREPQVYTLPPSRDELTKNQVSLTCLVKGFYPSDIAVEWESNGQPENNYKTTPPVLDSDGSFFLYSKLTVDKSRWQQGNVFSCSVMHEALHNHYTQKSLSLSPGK
T2 sequence (chain, as listed by the source limits assumed): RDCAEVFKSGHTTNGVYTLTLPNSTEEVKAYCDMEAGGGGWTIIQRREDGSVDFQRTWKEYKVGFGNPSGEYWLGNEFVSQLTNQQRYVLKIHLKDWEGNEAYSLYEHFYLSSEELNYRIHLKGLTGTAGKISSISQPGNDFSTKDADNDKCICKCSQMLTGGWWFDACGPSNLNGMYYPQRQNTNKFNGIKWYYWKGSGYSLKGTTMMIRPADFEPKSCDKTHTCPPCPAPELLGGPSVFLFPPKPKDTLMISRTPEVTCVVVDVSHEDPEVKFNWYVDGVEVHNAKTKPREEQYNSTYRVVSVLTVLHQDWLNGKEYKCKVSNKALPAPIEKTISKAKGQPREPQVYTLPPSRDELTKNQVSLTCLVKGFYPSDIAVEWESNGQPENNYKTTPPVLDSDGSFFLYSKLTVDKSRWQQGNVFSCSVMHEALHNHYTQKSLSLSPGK
T3 sequence (chain, as listed by the source limits assumed): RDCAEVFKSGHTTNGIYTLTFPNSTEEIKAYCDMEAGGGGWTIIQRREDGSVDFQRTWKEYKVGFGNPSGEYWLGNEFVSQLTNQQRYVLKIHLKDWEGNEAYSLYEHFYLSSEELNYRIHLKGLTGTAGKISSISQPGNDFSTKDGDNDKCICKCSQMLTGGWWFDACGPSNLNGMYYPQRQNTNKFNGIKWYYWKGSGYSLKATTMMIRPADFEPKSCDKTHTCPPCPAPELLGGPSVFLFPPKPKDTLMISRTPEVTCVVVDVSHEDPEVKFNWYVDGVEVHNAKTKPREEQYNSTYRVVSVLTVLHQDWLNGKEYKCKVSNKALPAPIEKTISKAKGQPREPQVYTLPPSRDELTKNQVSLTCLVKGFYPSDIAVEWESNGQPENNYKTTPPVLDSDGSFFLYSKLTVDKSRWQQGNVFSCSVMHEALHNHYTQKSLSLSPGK

Binder | Kd [1] [nM] | T1/2 [1] [h] | Kd [2] [nM] | T1/2 [2] [h] | T1/2 [3] [h] | Kd [4] [nM] | T1/2 [4] [h] | Kd [5] [nM] | T1/2 [5] [h] | Kd [6] [nM] | T1/2 [6] [h] | Kd [7] [nM] | T1/2 [7] [h] | Kd [3] [nM]
B1 | 0.385 | 0.55 | 0.244 | 0.4 | 1.92 | 0.346 | 2.73 | 0.114 | 2.12 | 0.215 | 0.433 | 0.32 | 0.183 | –
B2 | 0.0651 | 3.47 | – | – | 2.14 | – | – | – | – | 0.0939 | 1.07 | – | – | 0.148

Reference: patent US20150147342A1 (published 2015)
